# Reference: the nanobody polyreactivity screen of Harvey et al. (2022)
# Assay: yeast display, Sf9 membrane polyspecificity reagent, FACS + sequencing; frameworks hold sequencing errors
# Method in brief: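 Galactose-induced (36–48 hours) yeast carrying a synthetic nanobody display library were exposed to 10% biotinylated, detergent-solubilized Sf9 membrane reagent at 4 °C for 1 hour. FACS followed streptavidin microbead enrichment, using low and high (top ~1%) gates for expression (anti-HA) and reagent binding (streptavidin). Colony PCR, MiSeq 2 × 250 sequencing and CDR-length filtering followed. Labels for polyreactivity reflect the gate of origin.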
row,Sequence,polyreactivity (PSR sort gate)
1,QVQLVESGGGLVQAGGSLRLSCAASGRTFRNYAMGWYRQAPGKERELVAAIRSGVRTYYADSVKGRFTISRDNAKNTVYLQMNSLKPEDTAVYYCAVATGLLYKSHGYWGQGTQVTVSS,low polyreactivity
2,QVQLVESGGGLVQAGGSLRLSCAASGFTFGGNDMGWYRQAPGKERELVAAISWSGGSTYYADSVKGRFTISRDNAKNTVYLLMNSLKPEDTAVYYCAADYYYGKVHFDYWGQGTQVTVSS,low polyreactivity
3,QVQLGESGGGLVQAGGSLRLSCAPTGRTFVRNAIGWYRPAPGKERELVAAISYSGGSTTYADSVKGRFTISRDNAKNTVYLQMNSLKPADTAVYYCAKKPPVGEPSGREYWGQGTQVTVSS,low polyreactivity
4,QVQLVESGGGLVQAGGSLRLSCAASGFTFEGNAMGWYRQAPGKEREFVAAITSNGGGTYYADSVKGRFTISRDNAKNTVYLQMNSLKPEDTAVYDCAATYWTWYSWYDYWGQGTQVTVSS,high polyreactivity
5,QVQLVESGGGLVQAGGSLRLSCAASGTSGYYAMGWNRQAPGKERELVAGISIGGSTNYADSVKGRFTISRDNAKNTVYLQMNSLKTEDTAVYYCAVDGYVAFSPDRNNYWGQVTQVTVSS,low polyreactivity
6,QVQLVESGGGLDQAGGSLRLSCAASGSIFNDNVMGWYRQAPWKERELVAGISRSGTRTYYADSVKGRFTISRDNAKNTVYLQMNSLKPEDTAVYYCAAAYGQARRYNGSQYGSWGQGTQVTVSS,high polyreactivity
7,QVQLVESGGGLVQAGGSLRLSCASSGRTFYINAMVWYRQAPGKERELVAAISIRGGRTYYADSVKGRFTISRDNAKNTVYLQMISLKPEDTAVYYCAADYGSLRQRTLYEYWGQGTQVTVSS,low polyreactivity
8,QVQLVESGGGLVQAGGSLRVSCAASGSTLGRNTMGWYRQAPGKVRELVAAITITDSTNYADSVKGRFTISRDNAKNTVYLQMNSLKPEDTAVYYGAKRRYYSTPRWGSSTYDYWGLGTQVTVSS,low polyreactivity
9,QVQLVESGGGLVQAGGSLRLSCAASGLNFYYYAMGWYRQAPGKESELVAAISGGGSTYYADSVKGRFTISRDNAKNTVYLQMNSLKPEDTAVYYCAASYWYPSWLYDYWGQGTQVTVSS,low polyreactivity
10,QVQLVESGGGLVQAGGSLRLSCAASGFIFRYYAMGWYRQAPGKERELVAAITSRGSSTYYADSVKGRFTISRDNAKNTVYLQMNSLKPEDTAVYYCAARSSATRSWIASRPGYRYNYWGQGTQVTVSS,high polyreactivity
11,QVQLVESGGGLVQAGGSLRLSCAASGSTFLTNAIGWYRQATGKEREIVADITWSGGSTYYADSVKGRFTISRDNAKNTVYLQMNSLKPEDTAVYYCAVDAYSSVYLWGFVRFDYWGQGTQVTVSS,low polyreactivity
12,QVQLVESVGGLVQAGGSLRLSCAASGLIFVRYAMGWYRQAPGKERELVATITWSGGTTYADSVKGRFTISRDNAKNTVYLQMNSLKPEDTAVYYCAVEWPAWTDSDYPVGGHAFGYWGQGTQVTVSS,low polyreactivity
13,QVQLVESGGGLVQAGGSLRLSCAASGSTFNRYAMGWYRQAPGKERELVASISCSGGGSTYYADSVKGRFTISRDNAKNTVYLQMNSLKPEDTAVYYCAVSRDSYGGKGSVLYDYWGQGTQVTVSS,low polyreactivity
14,QVQLVESGGGLVQAGGSLRLSCAASGRTFFYYAMGSYRQAPGKERELVATITKRGGSTYYADSVKGRFTISRDNAKNTVYLQMNSLKPEDTAVYYCNAAGNPVSRYHYDYWGQGTQVTVSS,high polyreactivity
15,QVQLVESGGGFVQAGGSLRLSCAASGIIFDYNAMGWYRQAHGKERELVAAISGRSGRTYYADSVKGRFTISRDNAKNTVYLQMNSLKPEDTAVYYCAARWYAGGNYWGQGTQVTVSS,high polyreactivity
16,QVQLVESGGGLVQAGGSLRLSCAASGSTFSNNVMGGYIQAPGKERELVAAISSRGGSTYYADSVKGRFTISRDNAKNTVYLQMNSLKPEDTAVYYCAADQWYAFILGYPMVYWGQGTQVTVSS,high polyreactivity
17,QVQLVESGGGLVQAGGSLRLSCAASGITFFDYAMGWYRQAPGKERELVAAIDLSDGRTYYADSVKGRFTISRDNAKNTVYLQMNSLKPEDTAVYYCARQHEDYGYYWYYWYDYDYWGQGTQVTVSS,low polyreactivity
18,QVQLVESGGGLVQAGGSLRLSCAASGFIFSRYAMGWSRQAPGKERELVAAISSRGGSTYYADSVKGRFTISRDNAKNTVYLQMNSLKPEDTAVFYWIAVGSAHYDYWGQGTQVTVSS,high polyreactivity
19,QVQLVESGGGLVQAGGSLRLSCAASGRTFASNAMGWSRQAPGKERELVAAITRGGSTNYADSVKGRFTISRDNAKNTVYLQMNSLKPEDTAVYYCAARLSSGFRSYYYWGQGTQVTVSS,high polyreactivity
20,QVQLVESGGGLVQAGGSLRLSCAASGSIYYAMGWYRQAPGKEREFVAAINSGGSTYYADSVKGRFTISRDNAKNTVYLQMNSLKPEDTAVYYCAADVWTPYLMSLKYGYDYWGQGTQVTVSS,low polyreactivity

row,Sequence,polyreactivity (PSR sort gate)
1,QVQLVESGGGLFQAVGSLRLSCAASGFIFYDYAMGWYRQAPGKEMELVAAISKRGGSTYYADSVKGRFTISRDNAKNTVYLQMNSLKPEDTADYYCAAALWGWRYYYWGQGTQVTVSS,high polyreactivity
2,QVQLVESGGGLVQAGGSLRLSCAASGSIYRYYDMGWYRQAPGKERELVAAITYSGGGTYYADSVKGRFTISRDNAKNTVYLQMNSLKPEDTAVYYCAAEPYYGWKRLDYWGQVTQVTVSS,low polyreactivity
3,QVHLVESGGGLVQAGVSLRLSCAASGFTFYRNAMGWYRQAPGKERELVAAISSRGGSTYYADSVKGRFTISRYNANNTVYFQMNSLKPEDTAVYYCAAYGNYNEYDYWGPGTQVTVSS,high polyreactivity
4,QVQLVESGGGLVQAGGSLRLSCAASGSIFVINAMGWYRQAPGKERELVAAISYSGTGTYYADSVKGRFPISRDNAKITVYLQMNSLKPEDTAVYYCAADYYYRYRIYDYWGHGTQVTVSS,low polyreactivity
5,QVQLVESGGGLVQAGGSLRLTCAASGYTLSVNAKGWSRQAPGKEMDLVATNDFGGGSTYYADSVKGRFTISRDNAKNTVYLQMNSLKREDTAVYYCATDGGAAWGRYYWDYGYWGQGTQVTVSS,low polyreactivity
6,QVQLVESGGGLVQAGGSLRLSCAASGGTFSPYDMGWYRQAPGKERELFASITGSGGSTYYADSVKGRFTISRDNAKNTVYLQMNSLKPVDTAVYDCATQPLTWSSYRWDWRAQFDHWGQGTQVTVSS,low polyreactivity
7,QVQLVESGGCLVQAGCSLRLSCAASGRTFRTYVMGWYRQAPGKEREFVAGITWSSGSTRYADSVKGRFTISRDNAKNTVYLQMNSLKPEDTAVYYCNATPFYLLYSHTYIQYEGDYWGQGTQVTVSS,high polyreactivity
8,QVQLVESGGGIVQAGGSLRLSWAASGFIFNNYAMGWYRQAPGKERELVAAITGGGSTNYADSVKGRFTISRDNAKNTVYLQMNSLKPEDTAVYYCNAEGVWWSTRYDSWGQGTQVTVSS,low polyreactivity
9,QVQLVESGGGLVQAGGSLRLSCAASGRIFTYYAMGWYRQAPGKERELVATICSSGSTNYADSVKGRFTISRDNAKNTVYLQMNSLKPEDTAVYYCAKKTRRRYDVKYDYWGQGTQVTVSS,low polyreactivity
10,QVQLVESGGGLVQAGGSLRLSCAASGITFGRKTMGWYRQAPGKERELVAAIDSGGNTYADSVKGRFTISRDNAKNTVYLQMNSLKPEDTAVYYCAVDGGVFSSYGYWGQGTLVTVSS,low polyreactivity
11,QVQLVESGGGLVQAGGRLRLSCAASGRIFRWNPMGWYRPAPGIERELVAAISASGGRTNYADSVKGRFTISRDNAKNTVYLQMKSLKPEDTAVYYCAAGPVYYYVPIGYDYWGQGTQVTVSS,high polyreactivity
12,QDQLVESGGGLVQAGGSLRLSCAASGNIFDYYAMGWYRQAPGKERELVATITWSSGRTYYADSVKGRFTISRDNAKNTVYLQMNSLKTEDTAVYYCNTRSYTRYDYWGQGTQVTVSS,low polyreactivity
13,QVQHVESGGGLVQEGGILRLSCAASGFTYRTYAMGWSRQAPGQESELVADISGSGGSTYYADSVKGRFTISRDNAKNTVYLQMNSQKPEDTAVFYCAADDASWSNLGYEYWGQGTQVTVSS,high polyreactivity
14,QVQLVESGGGLVQAGGSLRLSCAASGSTFRSYTRGWYRQAPGKERELVAAIRKSGVRTYYADSVKGRFTISRDNAKNTVYLQMNSLKPEDTAVYYCNRPKWYDGDYWGQGTEVTVSS,high polyreactivity
15,QVQLVETGGGLVQAGGSLRLSCASSGFTLRVNDMGWYRQAPGKERELVAGITVSGGSTYYADSVKVRFTISRDNAKNTVYLQMNSLKPEDTAVYYCNADNYENATVMDYWGQGTQVTVSS,low polyreactivity
16,QVQLVESGGGLVQAGGSLRLSCAASGFIFFAYAMGWYRQAPGKERELVAAISRTGGSTYYADSVKGRFTISRDNAKNTVYLEMNSLKPEDTAVYYCAAVVSRTYQWWTYDYWGQGTQVTVSS,high polyreactivity
17,QVQLVESGGGLVQAGGSLRLSCAASGSTFPVYVMGWYRQAPGKERELVAAITRIGGSTYYADSVKGRFTISRDNAKNTVYLQMNSLKPEDTAVYYCAAGGTARDDSWGQGTQVTVSS,low polyreactivity
18,QVQLVESGGGLVQAGGSLRLSCAASGSTFRRYAMGWNRKAPGKERELVAAISGRGGSTSYADSVTGRFTISRDNAKNTVFLQMNSLKPEETAVYYCAADDKYFYPGNGYWGQGTQVTVSS,high polyreactivity
19,QVQLVESGGGLVQAGGSLRLSCADSGNTLSYYVMGWYRQAPGKERELVADITSGGTTNYADSVKGRFTISRDNAKNTVYLQMNSLKAEDTAVYYCAAGPYKRPPWLRQGGYDYWGQGTQVTVSS,low polyreactivity
20,QVQLVESGGGIVQAGGSLRLSCAASGSIFLYYAMGWYRQAPGKERELVAPIRGSGSSTYYADSVKGRFTISRDNAKNTVYLQMNSLKPEDTAVYYCSAKGYRWFRHGGYYFKFDYWGQGTQVTVSS,high polyreactivity
